# Measured values as given in publication PMC8170675, “Allostery through DNA drives phenotype switching”.
# Residue numbers refer to the chain shown, from its start.
# T1: ComK (Bacillus subtilis, UniProt P40396)
# T1 sequence: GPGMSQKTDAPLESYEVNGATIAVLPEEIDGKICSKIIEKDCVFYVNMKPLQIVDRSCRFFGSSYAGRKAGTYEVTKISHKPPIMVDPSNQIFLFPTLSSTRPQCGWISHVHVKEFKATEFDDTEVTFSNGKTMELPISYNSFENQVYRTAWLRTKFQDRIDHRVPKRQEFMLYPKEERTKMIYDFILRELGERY
# T2: ΔCys ComK (Bacillus subtilis, UniProt P40396 1-192, C31A;C39A;C55A;C102A)
# T2 sequence: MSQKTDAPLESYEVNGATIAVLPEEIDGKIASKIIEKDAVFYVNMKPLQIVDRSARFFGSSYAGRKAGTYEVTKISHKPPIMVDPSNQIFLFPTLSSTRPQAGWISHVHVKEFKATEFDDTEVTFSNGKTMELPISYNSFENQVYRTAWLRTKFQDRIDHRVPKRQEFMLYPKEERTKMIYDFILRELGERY
# B1: addAB unlabelled (dsDNA)
# DNA 1: GATGTGCGGAGATAATCAGCTTTTTATATGTGAAAAGGCCGTTTTTACCAATAGATC
# DNA 2: GATCTATTGGTAAAAACGGCCTTTTCACATATAAAAAGCTGATTATCTCCGCACATC
# B2: addAB1: box 1 labelled (dsDNA)
# DNA 1: B1 DNA 1
# DNA 2: B1 DNA 2
# modifications: amino-C6-dT/dA at dye sites
# B3: comK: box 1 labelled (dsDNA)
# DNA 1: CTTATGAAAGTAAAATCGGTTTATTACTAGTCATTTAGTACCATTAAATATCATTAAAAGATGATTTTATCTTAAATG
# DNA 2: CATTTAAGATAAAATCATCTTTTAATGATATTTAATGGTACTAAATGACTAGTAATAAACCGATTTTACTTTCATAAG
# modifications: amino-C6-dT/dA at dye sites
# B4: comG: box 1 labelled (dsDNA)
# DNA 1: CAGTTGAAAGTCTTTTTTCTTGCCAGAAAGAATTGGTTTTTCAGCATATAACATCTCACAAAATCACGTTTTCCCTGTTTGATTACCTTTTCT
# DNA 2: AGAAAAGGTAATCAAACAGGGAAAACGTGATTTTGTGAGATGTTATATGCTGAAAAACCAATTCTTTCTGGCAAGAAAAAAGACTTTCAACTG
# modifications: amino-C6-dT/dA at dye sites
# B5: comG: box 2 labelled (dsDNA)
# DNA 1: B4 DNA 1
# DNA 2: B4 DNA 2
# modifications: amino-C6-dT/dA at dye sites
# B6: comG GC-72%: box 1 labelled (dsDNA)
# DNA 1: B4 DNA 1 with A43G, A46C, T47G, A48C, A53G, T54G
# DNA 2: B4 DNA 2 with A40C, T41C, T46G, A47C, T48G, T51C
# modifications: amino-C6-dT/dA at dye sites
# B7: comG GC-55%: box 1 labelled (dsDNA)
# DNA 1: B4 DNA 1 with T47G, A48C, T54G
# DNA 2: B4 DNA 2 with A40C, T46G, A47C
# modifications: amino-C6-dT/dA at dye sites
# B8: comG Mismatch: box 1 labelled (dsDNA)
# DNA 1: B4 DNA 1 with T47A, A48T, T49A, A50T
# DNA 2: B4 DNA 2
# modifications: amino-C6-dT/dA at dye sites
# B9: comG unlabelled (dsDNA)
# DNA 1: B4 DNA 1
# DNA 2: B4 DNA 2
# Assays:
# ComK [1] = target: T1, ComK; experiment: smFRET; conditions: amino-C6-dT/dA at dye sites, EMSA: 20 mM Tris pH 7.0, 50 mM L-Arg, 5 mM MgCl2, 150 mM KCl, 10 mM DTT, 0.001% Tween-20, 25 nM DNA, 20 min, smFRET: room temperature, 20 mM DTT
# ComK [2] = target: T1, ComK; experiment: cryo-EM; 50 mM L-Arg; two ComK per box; EMSA: 20 mM Tris pH 7.0, 50 mM L-Arg, 5 mM MgCl2, 150 mM KCl, 10 mM DTT, 0.001% Tween-20, 25 nM DNA, 20 min; smFRET: room temperature, 50 mM L-Arg, 20 mM DTT; conditions: protein: recombinant; tags: N-terminal His6-HRV3C tag removed; GPG remains at the N-terminus; chain copies: 4; blunt
# ComK [3] = target: T1, ComK; experiment: smFRET; Hill n 4.34 ± 0.32; unit inferred; EMSA: 20 mM Tris pH 7.0, 50 mM L-Arg, 5 mM MgCl2, 150 mM KCl, 10 mM DTT, 0.001% Tween-20, 25 nM DNA, 20 min; smFRET: room temperature, 50 mM L-Arg, 20 mM DTT; conditions: protein: recombinant; tags: N-terminal His6-HRV3C tag removed; GPG remains at the N-terminus; chain copies: 4; label: AlexaFluor 488 / AlexaFluor 594; blunt
# ComK [4] = target: T1, ComK; experiment: smFRET; Hill n 2.28 ± 0.16; unit inferred; EMSA: 20 mM Tris pH 7.0, 50 mM L-Arg, 5 mM MgCl2, 150 mM KCl, 10 mM DTT, 0.001% Tween-20, 25 nM DNA, 20 min; smFRET: room temperature, 50 mM L-Arg, 20 mM DTT; conditions: protein: recombinant; tags: N-terminal His6-HRV3C tag removed; GPG remains at the N-terminus; chain copies: 4; label: AlexaFluor 488 / AlexaFluor 594; blunt
# ComK [5] = target: T1, ComK; experiment: smFRET; Hill n 3.55 ± 0.12; unit not in visible table header, inferred from fit parameters; EMSA: 20 mM Tris pH 7.0, 50 mM L-Arg, 5 mM MgCl2, 150 mM KCl, 10 mM DTT, 0.001% Tween-20, 25 nM DNA, 20 min; smFRET: room temperature, 50 mM L-Arg, 20 mM DTT; conditions: protein: recombinant; tags: N-terminal His6-HRV3C tag removed; GPG remains at the N-terminus; chain copies: 4; label: AlexaFluor 488 / AlexaFluor 594; blunt
# ComK [6] = target: T1, ComK; experiment: smFRET; Hill n 3.44 ± 0.27; unit inferred; EMSA: 20 mM Tris pH 7.0, 50 mM L-Arg, 5 mM MgCl2, 150 mM KCl, 10 mM DTT, 0.001% Tween-20, 25 nM DNA, 20 min; smFRET: room temperature, 50 mM L-Arg, 20 mM DTT; conditions: protein: recombinant; tags: N-terminal His6-HRV3C tag removed; GPG remains at the N-terminus; chain copies: 4; label: AlexaFluor 488 / AlexaFluor 594; blunt
# ΔCys ComK = target: T2, ΔCys ComK; experiment: smFRET; 30 pM DNA, 100 nM protein; EMSA: 20 mM Tris pH 7.0, 50 mM L-Arg, 5 mM MgCl2, 150 mM KCl, 10 mM DTT, 0.001% Tween-20, 25 nM DNA, 20 min; smFRET: room temperature, 50 mM L-Arg, 20 mM DTT; conditions: protein: recombinant; chain copies: 4; label: AlexaFluor 488 / AlexaFluor 594; blunt
# ComK [7] = target: T1, ComK; experiment: smFRET; Hill n 3.05 ± 0.08; unit inferred; EMSA: 20 mM Tris pH 7.0, 50 mM L-Arg, 5 mM MgCl2, 150 mM KCl, 10 mM DTT, 0.001% Tween-20, 25 nM DNA, 20 min; smFRET: room temperature, 50 mM L-Arg, 20 mM DTT; conditions: protein: recombinant; tags: N-terminal His6-HRV3C tag removed; GPG remains at the N-terminus; chain copies: 4; label: AlexaFluor 488 / AlexaFluor 594; blunt
# ComK [8] = target: T1, ComK; experiment: smFRET; Hill n 2.97 ± 0.28; unit inferred; EMSA: 20 mM Tris pH 7.0, 50 mM L-Arg, 5 mM MgCl2, 150 mM KCl, 10 mM DTT, 0.001% Tween-20, 25 nM DNA, 20 min; smFRET: room temperature, 50 mM L-Arg, 20 mM DTT; conditions: protein: recombinant; tags: N-terminal His6-HRV3C tag removed; GPG remains at the N-terminus; chain copies: 4; label: AlexaFluor 488 / AlexaFluor 594; blunt
# ComK [9] = target: T1, ComK; experiment: smFRET; Hill n 2.93 ± 0.28; unit inferred; EMSA: 20 mM Tris pH 7.0, 50 mM L-Arg, 5 mM MgCl2, 150 mM KCl, 10 mM DTT, 0.001% Tween-20, 25 nM DNA, 20 min; smFRET: room temperature, 50 mM L-Arg, 20 mM DTT; conditions: protein: recombinant; tags: N-terminal His6-HRV3C tag removed; GPG remains at the N-terminus; chain copies: 4; label: AlexaFluor 488 / AlexaFluor 594; blunt ends, internal mismatches in spacer
molecule,measurement,setting,value
comG: isolated box 1 labelled,K half,"ComK [1]; Hill n 1.76 ± 0.02, unit inferred",73 nM
comG: isolated box 2 labelled,K half,"ComK [1]; Hill n 1.59 ± 0.09, unit inferred",48 nM
B1,binding result,ComK [2],binds
B2,apparent K (half saturation),ComK [3],25 ± 6 nM
B3,apparent K (half saturation),ComK [4],21 ± 2 nM
B4,apparent K (half saturation),ComK [5],15 ± 1 nM
B5,apparent K (half saturation),ComK [6],16 ± 1 nM
same,binding result,ΔCys ComK,no binding
B6,apparent K (half saturation),ComK [7],17 ± 1 nM
B7,apparent K (half saturation),ComK [8],16 ± 1 nM
B8,apparent K (half saturation),ComK [9],14 ± 1 nM
B9,binding result,ComK [2],binds
